In paper PMC10104521 (Proceedings of the National Academy of Sciences of the …, 2023):

Legend:
[1] = molecular target: T1, nonfarnesylated GBP1 (human), P32455; assay: dynamic light scattering; settings: remark: other sources report otherwise
T1 chain: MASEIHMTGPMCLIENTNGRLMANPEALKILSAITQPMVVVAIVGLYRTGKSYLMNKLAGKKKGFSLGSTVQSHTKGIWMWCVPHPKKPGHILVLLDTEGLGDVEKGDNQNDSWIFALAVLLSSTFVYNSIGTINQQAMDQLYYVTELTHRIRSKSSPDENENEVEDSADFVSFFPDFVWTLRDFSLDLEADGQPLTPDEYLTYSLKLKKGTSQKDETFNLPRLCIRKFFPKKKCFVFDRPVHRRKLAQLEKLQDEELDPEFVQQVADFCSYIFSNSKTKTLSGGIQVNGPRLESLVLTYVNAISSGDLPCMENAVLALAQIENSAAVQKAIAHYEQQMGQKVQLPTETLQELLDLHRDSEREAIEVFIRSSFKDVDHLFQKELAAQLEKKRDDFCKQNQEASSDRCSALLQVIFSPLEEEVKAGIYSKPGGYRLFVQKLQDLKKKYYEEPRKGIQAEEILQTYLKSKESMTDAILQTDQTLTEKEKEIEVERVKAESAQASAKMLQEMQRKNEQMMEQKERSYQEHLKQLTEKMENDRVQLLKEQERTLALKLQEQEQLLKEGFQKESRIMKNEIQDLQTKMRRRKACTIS

[2] = molecular target: T2, geranylgeranylated GBP5 (guanylate-binding protein 5) (human), Q96PP8; assay: dynamic light scattering; settings: remark: other sources report otherwise
T2 chain: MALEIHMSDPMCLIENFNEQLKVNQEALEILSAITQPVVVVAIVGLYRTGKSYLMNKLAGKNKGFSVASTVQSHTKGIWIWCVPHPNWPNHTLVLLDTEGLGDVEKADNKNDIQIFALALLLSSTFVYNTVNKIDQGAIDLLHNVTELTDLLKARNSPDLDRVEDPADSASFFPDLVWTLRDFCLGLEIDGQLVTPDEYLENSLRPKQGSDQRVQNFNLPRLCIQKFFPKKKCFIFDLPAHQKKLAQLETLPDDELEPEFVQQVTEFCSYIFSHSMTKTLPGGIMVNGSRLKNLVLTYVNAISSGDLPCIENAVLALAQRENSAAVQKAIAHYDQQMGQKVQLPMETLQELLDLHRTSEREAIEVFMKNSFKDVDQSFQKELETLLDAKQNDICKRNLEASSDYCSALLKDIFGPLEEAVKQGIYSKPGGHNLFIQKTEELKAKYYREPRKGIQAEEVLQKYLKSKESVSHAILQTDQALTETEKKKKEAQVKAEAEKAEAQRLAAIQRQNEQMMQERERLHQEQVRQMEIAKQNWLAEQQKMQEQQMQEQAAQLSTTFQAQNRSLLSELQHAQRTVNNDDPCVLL

[3] = molecular target: T3, nongeranylgeranylated GBP5 (human), Q96PP8; assay: dynamic light scattering; settings: remark: other sources report otherwise
T3 chain: T2 chain

[4] = molecular target: T4, farnesylated GBP1 (guanylate-binding protein 1) (human, UniProt P32455 1-592, C-terminal farnesyl moiety); assay: UV-absorbance-based light scattering
T4 sequence: T1 chain

[5] = molecular target: the molecule itself; assay: dynamic light scattering

B1: nonfarnesylated GBP1, P32455 1-592 (natural protein)
chain: T1 chain
Binder B1 has a stoichiometry N [1] of 2.

B2: geranylgeranylated GBP5 (guanylate-binding protein 5), Q96PP8 1-586 (natural protein)
chain: T2 chain
modifications: here or on the partner: C-terminal geranylgeranyl moiety; C-terminal geranylgeranyl moiety
Binder B2 has a stoichiometry N [2] of 2.

B3: nongeranylgeranylated GBP5, Q96PP8 1-586 (natural protein)
chain: T2 chain
With B3 the stoichiometry N [3] was 2.

B4: geranylgeranylated GBP5 (guanylate-binding protein 5) (natural protein, human, UniProt Q96PP8 1-586, looked up)
chain: T2 chain
modifications: C-terminal geranylgeranyl moiety
B4: binds [4].

B5: geranylgeranylated GBP2 (guanylate-binding protein 2) (natural protein, human, UniProt P32456 1-591, looked up)
chain: MAPEINLPGPMSLIDNTKGQLVVNPEALKILSAITQPVVVVAIVGLYRTGKSYLMNKLAGKKNGFSLGSTVKSHTKGIWMWCVPHPKKPEHTLVLLDTEGLGDIEKGDNENDSWIFALAILLSSTFVYNSMGTINQQAMDQLHYVTELTDRIKANSSPGNNSVDDSADFVSFFPAFVWTLRDFTLELEVDGEPITADDYLELSLKLRKGTDKKSKSFNDPRLCIRKFFPKRKCFVFDWPAPKKYLAHLEQLKEEELNPDFIEQVAEFCSYILSHSNVKTLSGGIPVNGPRLESLVLTYVNAISSGDLPCMENAVLALAQIENSAAVEKAIAHYEQQMGQKVQLPTETLQELLDLHRDSEREAIEVFMKNSFKDVDQMFQRKLGAQLEARRDDFCKQNSKASSDCCMALLQDIFGPLEEDVKQGTFSKPGGYRLFTQKLQELKNKYYQVPRKGIQAKEVLKKYLESKEDVADALLQTDQSLSEKEKAIEVERIKAESAEAAKKMLEEIQKKNEEMMEQKEKSYQEHVKQLTEKMERDRAQLMAEQEKTLALKLQEQERLLKEGFENESKRLQKDIWDIQMRSKSLEPICNIL
modifications: C-terminal geranylgeranyl moiety
B5: binds [5]; binds [4].

B6: nongeranylgeranylated GBP2 (natural protein, human, UniProt P32456 1-591, looked up)
chain: B5 chain
B6 was tested, and the “stoichiometry N” value [5] was 2.
